According to patent US20150266977A1 (AbbVie / Abbott, published 2015):
Numbering of substitutions follows the chain as printed.

T1: recombinant human sclerostin (human, UniProt Q9BQB4 24-213)
T1 construct: biotinylated in the ELISAs; also called hu sclerostin; hu scl
T1 sequence: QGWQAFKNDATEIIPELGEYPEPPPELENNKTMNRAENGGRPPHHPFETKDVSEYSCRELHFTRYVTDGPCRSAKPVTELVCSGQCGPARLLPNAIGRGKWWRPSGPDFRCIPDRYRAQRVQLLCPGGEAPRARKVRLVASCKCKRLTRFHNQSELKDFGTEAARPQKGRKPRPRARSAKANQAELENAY

T2: recombinant rat sclerostin (rat, UniProt Q99P67 24-213, limits assumed)
T2 sequence (looked up): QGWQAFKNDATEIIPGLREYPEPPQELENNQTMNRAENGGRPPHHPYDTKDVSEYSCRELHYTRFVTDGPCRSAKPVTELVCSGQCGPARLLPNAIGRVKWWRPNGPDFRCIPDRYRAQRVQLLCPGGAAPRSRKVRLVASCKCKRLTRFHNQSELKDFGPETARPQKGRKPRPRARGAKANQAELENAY

T3: recombinant mouse sclerostin (mouse, UniProt Q99P68 24-211)
T3 construct: also called ms sclerostin; murine sclerostin
T3 sequence (looked up): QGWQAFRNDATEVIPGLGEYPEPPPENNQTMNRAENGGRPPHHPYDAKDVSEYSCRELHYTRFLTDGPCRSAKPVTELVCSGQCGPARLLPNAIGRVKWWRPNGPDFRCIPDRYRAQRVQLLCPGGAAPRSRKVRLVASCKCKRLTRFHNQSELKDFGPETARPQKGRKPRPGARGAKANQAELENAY

B1: MSL10-AM3 (antibody, V domains shown)
VH: EVQLVESGGGLVQPGRSLRLSCAASGFTFDDYALHWVRQAPGKGLEWVSGIGWDEDMIDYADSVKGRFTISRDNAKNSLYLQMNSLRVEDTALYYCAGNNRGYGGLDVWGQGTTVTVSS
VL: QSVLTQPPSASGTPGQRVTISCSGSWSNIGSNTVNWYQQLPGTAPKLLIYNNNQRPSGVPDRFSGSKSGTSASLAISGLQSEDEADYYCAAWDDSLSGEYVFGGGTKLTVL
B2: MSL10-AM2.2 (antibody, V domains shown)
VH: B1 VH with D54E, E55D, N100S
VL: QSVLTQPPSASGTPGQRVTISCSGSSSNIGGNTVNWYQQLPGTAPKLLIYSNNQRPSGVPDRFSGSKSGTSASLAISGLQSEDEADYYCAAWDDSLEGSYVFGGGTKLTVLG
B3: MSL10-AM1 (antibody, V domains shown)
VH: B1 VH with G52N, D54E, E55G, M57D, N100S
VL: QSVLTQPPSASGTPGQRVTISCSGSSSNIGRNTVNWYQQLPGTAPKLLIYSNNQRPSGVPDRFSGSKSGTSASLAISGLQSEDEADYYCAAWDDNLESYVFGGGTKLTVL
B4: MSL10-AM4 (antibody, V domains shown)
VH: B1 VH with D30E, E55D
VL: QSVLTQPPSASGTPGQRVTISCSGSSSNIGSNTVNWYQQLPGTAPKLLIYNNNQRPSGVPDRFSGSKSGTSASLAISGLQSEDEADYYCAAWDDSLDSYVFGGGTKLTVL
B5: MSL10-AM5 (antibody, V domains shown)
VH: B1 VH with G52S, D54H, E55G, M57F
VL: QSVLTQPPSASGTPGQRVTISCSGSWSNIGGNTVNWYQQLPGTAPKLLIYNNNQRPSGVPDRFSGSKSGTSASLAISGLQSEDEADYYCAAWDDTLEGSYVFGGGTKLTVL
B6: MSL10-AM2 (antibody, V domains shown)
VH: B1 VH with D54E, E55D, N100S
VL: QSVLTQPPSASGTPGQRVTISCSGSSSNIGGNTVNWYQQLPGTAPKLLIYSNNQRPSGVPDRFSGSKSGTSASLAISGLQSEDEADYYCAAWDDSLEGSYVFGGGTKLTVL
B7: MSL10-AM9 (antibody, V domains shown)
VH: B1 VH with E55D
VL: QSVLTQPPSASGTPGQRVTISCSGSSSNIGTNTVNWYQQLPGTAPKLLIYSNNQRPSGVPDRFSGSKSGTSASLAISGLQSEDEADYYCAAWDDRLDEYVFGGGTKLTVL
B8: MSL10-AM7 (antibody, V domains shown)
VH: B1 VH with D30E, D54N, E55D, M57E, A75S
VL: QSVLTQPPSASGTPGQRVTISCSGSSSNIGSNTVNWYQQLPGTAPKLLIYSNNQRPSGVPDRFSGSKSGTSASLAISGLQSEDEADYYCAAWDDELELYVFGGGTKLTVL
B9: MSL10-AM8 (antibody, V domains shown)
VH: B1 VH with D30E, E55R, M57F, N100K, R101I
VL: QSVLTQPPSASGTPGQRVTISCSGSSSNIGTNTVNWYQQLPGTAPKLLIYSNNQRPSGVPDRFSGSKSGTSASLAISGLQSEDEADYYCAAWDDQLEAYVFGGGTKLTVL
B10: MSL10-AM6 (antibody, V domains shown)
VH: B1 VH with D31Q, G52N, E55G, M57Y, N100I
VL: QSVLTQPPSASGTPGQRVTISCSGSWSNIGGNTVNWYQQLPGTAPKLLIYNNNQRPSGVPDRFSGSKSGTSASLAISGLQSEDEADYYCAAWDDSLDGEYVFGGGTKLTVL
B11: MSL10-AM10 (antibody, V domains shown)
VH: B1 VH with D30S, G52S, D54Y, E55G, M57D, N100I
VL: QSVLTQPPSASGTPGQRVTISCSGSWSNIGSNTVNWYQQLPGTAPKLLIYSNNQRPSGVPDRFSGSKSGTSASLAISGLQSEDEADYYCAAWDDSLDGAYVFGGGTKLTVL
B12: MSL10-AM11 (antibody, V domains shown)
VH: B1 VH with G52S, D54H, E55G, M57F
VL: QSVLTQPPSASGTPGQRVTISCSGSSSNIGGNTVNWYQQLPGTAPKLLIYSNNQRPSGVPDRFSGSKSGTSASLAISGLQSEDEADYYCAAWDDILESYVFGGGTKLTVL

These binders were tested against T4, recombinant cynomolgus monkey sclerostin (cynomolgus monkey) (assay: SPR).
T4 construct: also called cyno sclerostin; Cyno sclerostin
Description: (§1) Approximately 10,000 RU (or 3000 RU when CM3 chip was used) of goat anti-mouse or anti-human IgG (Fcγ) fragment specific polyclonal antibody (Pierce Biotechnology Inc, Rockford, Ill.) diluted in 10 mM sodium acetate (pH 4.5) was directly immobilized across a CM5 (or CM3) research grade biosensor chip using a standard amine coupling kit according to manufacturer's instructions and procedures at 15 μg/ml. Unreacted moieties on the biosensor surface were blocked with ethanolamine. Modified carboxymethyl dextran surface in flowcells 2, 3 and 4 were used as a reaction surface. Modified carboxymethyl dextran in flow cell 1 was used as the reference surface. Biaevaluation T100 software version 2.0.2, GE Healthcare Life Sciences was used to simultaneously fit association and dissociation phases of all injections (using 1:1 fit analysis with local Rmax). Purified antibodies were diluted in running buffer for capture across goat anti-mouse or anti-human IgG specific reaction surfaces. Antibodies to be captured as a ligand (1 μg/ml) were injected over reaction matrices at a flow rate of 10 μl/minute. The association and dissociation rate constants, kon (unit M-1 s-1) and koff (unit s-1) were determined under a continuous flow rate of 50 μl/minute. […] At the end of each cycle the surfaces were regenerated with 10 s injection of 50 mM NaOH or/and by 10 s injection of 10 mM Glycine pH1.5 at a flow rate of 100 μl/min. Instrument appropriate Biaevaluation software, GE Healthcare Life Sciences was used to simultaneously fit association and dissociation constants as well as KD (using 1:1 global fit analysis with local Rₘₐₓ). Binding was recorded as a function of time and kinetic rate constants are calculated. In this assay, on-rates as fast as 10⁷ M⁻¹ s⁻¹ and off-rates as slow as 10⁻⁶ s⁻¹ can be measured.

Kd [pM] | koff [s⁻¹] | kon [M⁻¹ s⁻¹] | Binder
1300 | 0.0001 | 77000 | B1
110 | 6.7e-05 | 600000 | B2
420 | 2.3e-05 | 54000 | B3
5600 | 0.00073 | 130000 | B4
1100 | 8.7e-05 | 82000 | B5
770 | 8.8e-05 | 110000 | B6

The binders below were run against T1, recombinant human sclerostin (assay: SPR).
Description: as §1

Kd [pM] | koff [s⁻¹] | kon [M⁻¹ s⁻¹] | Binder
54 | 5.2e-06 | 96000 | B7
900 | 7.6e-05 | 84000 | B1
330 | 0.00011 | 340000 | B2
420 | 7.2e-05 | 170000 | B8
730 | 7.7e-05 | 110000 | B9
300 | 1.6e-05 | 52000 | B3
3400 | 0.00055 | 170000 | B10
290 | 3.9e-05 | 130000 | B11
850 | 7.4e-05 | 88000 | B12
5300 | 0.00073 | 140000 | B4
970 | 7.4e-05 | 77000 | B5
65 | 7.6e-06 | 120000 | B6

Each binder was assayed against T2, recombinant rat sclerostin (assay: SPR).

binding result | Binder
no binding | B7
no binding | B1
no binding | B2
no binding | B8
no binding | B9
no binding | B3
no binding | B10
no binding | B11
no binding | B12
no binding | B4
no binding | B5
no binding | B6

What follows are binders tested against T3, recombinant mouse sclerostin (assay: SPR).

binding result | Binder
no binding | B7
no binding | B1
no binding | B2
no binding | B8
no binding | B9
no binding | B3
no binding | B10
no binding | B11
no binding | B12
no binding | B4
no binding | B5
no binding | B6
